According to paper PMC2213029 (The Journal of Experimental Medicine, 2005):
Non-standard residues stand in square brackets, D forms with d. No end group written: not given here. pY = N[C@@H](Cc1ccc(OP(=O)(O)O)cc1)C(=O)O

T1: CD45-D1D2 (597–1213) C828S (human, UniProt P08575 622-1238, C828S, selenomethionine (Sel-Met) substituted in the crystals with the phosphopeptides)
T1 sequence (looked up): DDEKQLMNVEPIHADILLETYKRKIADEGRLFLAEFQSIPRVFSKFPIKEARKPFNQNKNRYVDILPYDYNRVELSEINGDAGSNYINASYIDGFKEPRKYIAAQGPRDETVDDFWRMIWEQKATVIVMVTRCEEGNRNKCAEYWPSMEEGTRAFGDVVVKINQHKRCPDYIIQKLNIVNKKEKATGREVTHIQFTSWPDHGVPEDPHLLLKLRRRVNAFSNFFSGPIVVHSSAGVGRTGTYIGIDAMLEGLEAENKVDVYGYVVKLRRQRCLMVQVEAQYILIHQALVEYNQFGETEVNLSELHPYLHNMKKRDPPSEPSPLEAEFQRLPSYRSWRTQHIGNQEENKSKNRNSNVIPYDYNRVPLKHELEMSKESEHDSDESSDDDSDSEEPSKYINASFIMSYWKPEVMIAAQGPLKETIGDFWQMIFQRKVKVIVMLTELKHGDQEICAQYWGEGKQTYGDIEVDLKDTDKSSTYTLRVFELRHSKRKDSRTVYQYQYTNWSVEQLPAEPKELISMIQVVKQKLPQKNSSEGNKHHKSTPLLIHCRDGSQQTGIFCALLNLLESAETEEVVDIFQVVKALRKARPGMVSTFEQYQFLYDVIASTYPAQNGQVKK

B1: CD3ζ ITAM-1 phosphopeptide (membrane proximal ITAM of the CD3ζ chain, both tyrosines phosphorylated) (peptide)
peptide: QQQQNQL[pY]NELNLGRREE[pY]DVLDKRRG
B2: NPTpYS phosphopeptide derived from the polyoma middle T antigen (peptide)
peptide: NPT[pY]S

Target: T1, CD45-D1D2 (597–1213) C828S
Test: crystal structure

Binder | binding result
B1 | binds
B2 | binds
